According to publication PMC10939263:

Experiments:
C1-fused SRC kinases = assay: split reporter (BiFC, NanoBiT); Gaussia princeps luciferase complementation assay in human HEK293T cells; Gluc2 at the N terminus of SKAP1 or SKAP2 (N2), Gluc1 at the N terminus (N1) or C terminus (C1) of the SRC kinase; 100 ng plasmid pair, PEI; luminescence read in lysate one day later; normalized luminescence ratio (NLR), given relative to wild type or to SKAP2
LYN, N1-fused = LYN, N1-fused (UniProt P07948); assay: luciferase complementation assay (normalized luciferase ratio, NLR); settings: HEK293T cells; one experiment; read off a plot
LYN, C1-fused = LYN, C1-fused (UniProt P07948); assay: as above; settings: HEK293T cells; one experiment; read off a plot
[1] = molecular target: HCK wild type, C1-fused, P08631-2; assay: as above; settings: HEK293T cells; one experiment; read off a plot
BLK, C1-fused = BLK, C1-fused (UniProt P51451); assay: as above; settings: HEK293T cells; one experiment; read off a plot
FRK, C1-fused = FRK, C1-fused (UniProt P42685); assay: as above; settings: HEK293T cells; one experiment; read off a plot
LCK wild type, C1-fused = LCK wild type, C1-fused (UniProt P06239); assay: as above; settings: HEK293T cells; one experiment; read off a plot
[2] = molecular target: FYN (isoform without exon 7), N1-fused, P06241-3; assay: as above; settings: HEK293T cells; one experiment; read off a plot
BLK, N1-fused = BLK, N1-fused (UniProt P51451); assay: as above; settings: HEK293T cells; one experiment; read off a plot
FGR, C1-fused = FGR, C1-fused (UniProt P09769); assay: as above; settings: HEK293T cells; one experiment; read off a plot
[3] = molecular target: FYN (isoform without exon 7), C1-fused, P06241-3; assay: as above; settings: HEK293T cells; one experiment; read off a plot

| SKAP2 normalized NLR, mean over C1-fused SRC kinases (against wild type SKAP2) (C1-fused SRC kinases) | ratio to parent (LYN, N1-fused) | ratio to parent (LYN, C1-fused) | ratio to parent [1] | ratio to parent (BLK, C1-fused) | ratio to parent (FRK, C1-fused) | ratio to parent (LCK wild type, C1-fused) | ratio to parent [2] | ratio to parent (BLK, N1-fused) | ratio to parent (FGR, C1-fused) | ratio to parent [3] | Substance |
| --- | --- | --- | --- | --- | --- | --- | --- | --- | --- | --- | --- |
| 0.39 | – | – | – | – | – | – | – | – | – | – | SRC kinase associated phosphoprotein 1 (SKAP1), wild type, N2-fused (from UniProt Q86WV1 1-359) (natural protein) |
| – | 0.93 | 1.2 | 1.3 | 0.9 | 0.64 | 0.68 | 0.66 | 0.7 | 1.3 | 0.78 | SRC kinase associated phosphoprotein 1 (SKAP1), wild type, N2-fused (from UniProt Q86WV1) DIM- |
